According to article PMC3212559, “Large-Scale Protein-Protein Interaction Analysis in Arabidopsis Mesophyll Protoplasts by Split Firefly Luciferase Complementation” (PLoS ONE, 2011):

Legend:
Experiment in all cases: split reporter (BiFC, NanoBiT); SFLC in living Arabidopsis mesophyll protoplasts: Aux/IAA-FLucN or MYB30-FLucN co-expressed with ARFCTD-FLucC or Aux/IAA-FLucC for 6 hr; 10 µg of each construct, 2×10^4 cells, 96-well plate, D-luciferin; relative activity standardised against ARF5CTD-FLucC + IAA28-FLucN
Conditions in all cases: partners not purified
[1] = target: T1, IAA12-FLucC (Arabidopsis, UniProt Q38830 1-239)
T1 construct: Arabidopsis Aux/IAA protein IAA12; also called Aux/IAA-FLucC; source: Arabidopsis mesophyll protoplasts, transfected, in living cells; not shown: FLucC (firefly luciferase aa 394-550)
T1 sequence (looked up): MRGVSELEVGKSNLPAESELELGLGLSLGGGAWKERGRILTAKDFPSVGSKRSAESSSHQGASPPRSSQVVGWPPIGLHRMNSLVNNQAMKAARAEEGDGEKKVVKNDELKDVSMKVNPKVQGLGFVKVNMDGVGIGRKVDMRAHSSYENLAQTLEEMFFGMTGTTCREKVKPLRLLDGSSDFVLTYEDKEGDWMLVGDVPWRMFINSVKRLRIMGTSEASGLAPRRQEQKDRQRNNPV

[2] = target: T2, IAA3-FLucC (Arabidopsis, UniProt Q38822 1-189)
T2 construct: Arabidopsis Aux/IAA protein IAA3; also called Aux/IAA-FLucC; source: Arabidopsis mesophyll protoplasts, transfected, in living cells; not shown: FLucC (firefly luciferase aa 394-550)
T2 sequence (looked up): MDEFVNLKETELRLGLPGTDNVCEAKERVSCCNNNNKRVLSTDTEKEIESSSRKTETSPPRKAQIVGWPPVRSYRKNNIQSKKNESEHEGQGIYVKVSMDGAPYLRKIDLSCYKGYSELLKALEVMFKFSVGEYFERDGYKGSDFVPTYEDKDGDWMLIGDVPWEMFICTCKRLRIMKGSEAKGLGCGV

[3] = target: T3, ARF12 C-terminal domain (CTD)-FLucC (Arabidopsis, UniProt Q9XID4 511-593)
T3 construct: Arabidopsis auxin response factor 12, C-terminal dimerization domain (CTD); In the ARF-ARF tests the same CTD stood both as ARFCTD-FLucC and as ARFCTD-FLucN; one molecule for both; also called ARF12CTD-FLucC; ARFCTD-FLucC; source: Arabidopsis mesophyll protoplasts, transfected, in living cells; not shown: FLucC (firefly luciferase aa 394-550)
T3 sequence (looked up): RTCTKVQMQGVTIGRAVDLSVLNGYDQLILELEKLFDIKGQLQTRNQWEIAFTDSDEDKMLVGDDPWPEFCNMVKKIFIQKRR

[4] = target: T4, C-terminal domain (CTD) of ARF5-FLucC (Arabidopsis, UniProt P93024 793-902)
T4 construct: In the ARF-ARF tests the same CTD stood both as ARFCTD-FLucC and as ARFCTD-FLucN; one molecule for both; also called ARF5CTD-FLucC; auxin response factor 5; source: Arabidopsis mesophyll protoplasts, transfected, in living cells (SFLC) and in lysate (co-IP); not shown: FLucC (firefly luciferase aa 394-550)
T4 sequence (looked up): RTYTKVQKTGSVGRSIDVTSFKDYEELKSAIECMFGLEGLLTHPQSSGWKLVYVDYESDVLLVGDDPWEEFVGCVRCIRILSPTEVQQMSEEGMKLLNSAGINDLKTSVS

Measured: relative luciferase activity (standardised against ARF5CTD-FLucC + IAA28-FLucN)

B1: MYB30-FLucN (natural protein, UniProt Q9SCU7 1-323, looked up)
chain: MVRPPCCDKGGVKKGPWTPEEDIILVTYIQEHGPGNWRAVPTNTGLLRCSKSCRLRWTNYLRPGIKRGNFTEHEEKMIVHLQALLGNRWAAIASYLPQRTDNDIKNYWNTHLKKKLNKVNQDSHQELDRSSLSSSPSSSSANSNSNISRGQWERRLQTDIHLAKKALSEALSPAVAPIITSTVTTTSSSAESRRSTSSASGFLRTQETSTTYASSTENIAKLLKGWVKNSPKTQNSADQIASTEVKEVIKSDDGKECAGAFQSFSEFDHSYQQAGVSPDHETKPDITGCCSNQSQWSLFEKWLFEDSGGQIGDILLDENTNFF
notes: transcription factor MYB30, the unrelated protein used as negative control; source: Arabidopsis mesophyll protoplasts, transfected, in living cells; not shown: FLucN (firefly luciferase aa 1-398)
< 0.1: all assays above
